The values that follow come from article PMC7948469.

For experiment [1], the target named is mHC-hLC (mouse heavy chain-human light chain) chimeric plasminogen (mouse | human) (UniProt P00747).
The target of experiment [2] is human plasminogen (human).
In experiment [3] the target is hPg[D219N] (human Pg with a [D219N] mutation) (human).
Experiment [4] addresses mHC-hLC (mouse heavy chain-human light chain) chimeric plasminogen (mouse | human) (UniProt P00747). The experiment can be described thus: SPR; each Pg amine-coupled on a CM-5 chip (~1200 RU); SK1 flowed at 0-0.25 uM, SK2b at 0-2 uM; 25 °C; HBS-EP+ with 50 uM p-nitrophenyl-p'-guanidinobenzoate; 1:1 Langmuir fit; KD from koff/kon. (In general: SPR reads the build-up and loss of mass on a sensor chip optically.)

Experiment [5] concerns the target human plasminogen (human). Described as above.
For experiment [6], the target named is hPg[D219N] (human Pg with a [D219N] mutation) (human). Described as above.
Experiment [7] addresses mouse plasminogen (mouse). The experiment is described as above.
Experiment [8] deals with hHC-mLC (human heavy chain-mouse light chain) chimeric plasminogen (human | mouse) (UniProt P00747). Described as above.
The target in experiment [9] is plasminogen-binding group A streptococcal M-protein (Streptococcus pyogenes (GAS isolate AP53)). The experiment in a line: SPR; PAM amine-coupled on a CM-5 chip (up to 250 RU); Pg flowed at 0-50 nM (hPg[D219N] up to 300 nM); 25 °C; HBS-EP+ (10 mM Na-Hepes/150 mM NaCl/3 mM EDTA/0.05% polysorbate 20, pH 7.4); 1:1 Langmuir fit; KD from koff/kon.
Sequence of plasminogen-binding group A streptococcal M-protein (Streptococcus pyogenes (GAS isolate AP53)) (P49054 30-380 limits assumed): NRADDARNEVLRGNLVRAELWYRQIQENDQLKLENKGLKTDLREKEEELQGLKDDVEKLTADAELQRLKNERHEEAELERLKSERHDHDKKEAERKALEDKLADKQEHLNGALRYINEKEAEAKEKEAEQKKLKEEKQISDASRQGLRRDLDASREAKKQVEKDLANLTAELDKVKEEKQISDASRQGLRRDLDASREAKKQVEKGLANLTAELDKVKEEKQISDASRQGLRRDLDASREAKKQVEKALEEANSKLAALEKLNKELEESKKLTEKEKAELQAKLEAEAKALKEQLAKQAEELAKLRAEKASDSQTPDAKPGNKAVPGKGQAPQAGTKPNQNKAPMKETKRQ

Usually Kd stands for the concentration at which binding is half-saturated. Low values mean tighter binding, high ones weaker binding. The koff is the first-order rate constant of dissociation. Low readings indicate slow dissociation, high ones fast dissociation. A word on the kon: it is the rate constant with which the complex forms. Read a high kon as faster complex formation.

Turning to streptokinase SK2b (natural protein), the % active site formation in the SK2b-Pg complex (MUGB cleavage), with saturating PAM (5 uM) in experiment [1] came to 33%; in experiment [2] it was 78%; in experiment [3] it was 86%. For the same substance, the % active site formation in the SK2b-Pg complex (MUGB cleavage), without PAM in experiment [1] stood at 18%; in experiment [2], 19%; in [3], 66%. In addition, the Kd in experiment [4] worked out at 202 nM; in experiment [5] it was 85 nM; in experiment [6], 73 nM; in experiment [7], 240 nM; in [8] it was 187 nM. Besides, the koff in experiment [4] amounted to 0.0016 s⁻¹; in experiment [5], 0.0015 s⁻¹; in experiment [6], 0.0012 s⁻¹; in experiment [7], 0.0016 s⁻¹; in [8], 0.0014 s⁻¹. In addition, the association rate constant (kon) in experiment [4] is 8000 M⁻¹ s⁻¹; in experiment [5], 18000 M⁻¹ s⁻¹; in experiment [6], 17000 M⁻¹ s⁻¹; in experiment [7], 6000 M⁻¹ s⁻¹; in experiment [8], 8000 M⁻¹ s⁻¹.
As to streptokinase SK1 (natural protein), the Kd amounted to 1 nM in [4]; 0.9 nM in experiment [5]; 0.4 nM in [6]; 6.1 nM in experiment [7]; 1.9 nM in experiment [8]. For the same substance, the koff in [4] worked out at 0.0016 s⁻¹; in experiment [5], 0.0015 s⁻¹; in experiment [6] it was 0.0005 s⁻¹; in experiment [7], 0.0102 s⁻¹; in experiment [8], 0.0059 s⁻¹. The kon was determined as 1.57e+06 M⁻¹ s⁻¹ in [4]; 1.65e+06 M⁻¹ s⁻¹ in experiment [5]; 1.48e+06 M⁻¹ s⁻¹ in [6]; 1.65e+06 M⁻¹ s⁻¹ in experiment [7]; 3.03e+06 M⁻¹ s⁻¹ in [8].
For “hHC-mLC (human heavy chain-mouse light chain) chimeric plasminogen (from UniProt P00747 20-580)”, in experiment [9], the Kd was 3 nM, the koff was 0.0012 s⁻¹ and the kon worked out at 390000 M⁻¹ s⁻¹.
The corresponding values for human plasminogen (natural protein) are 2.2 nM, 0.0006 s⁻¹ and 270000 M⁻¹ s⁻¹.
In experiment [9], mouse plasminogen (natural protein) gave a Kd of 14 nM, a koff of 0.0033 s⁻¹ and a kon of 260000 M⁻¹ s⁻¹.
For the substance “mHC-hLC (mouse heavy chain-human light chain) chimeric plasminogen (from UniProt P00747 581-810)”, in experiment [9], the Kd is 16 nM, the koff was found to be 0.0038 s⁻¹ and the kon came to 240000 M⁻¹ s⁻¹.
